From PMC2192707 come the findings set out here.

For the data set, the target named is T1, calnexin (UniProt P35564).
T1 sequence: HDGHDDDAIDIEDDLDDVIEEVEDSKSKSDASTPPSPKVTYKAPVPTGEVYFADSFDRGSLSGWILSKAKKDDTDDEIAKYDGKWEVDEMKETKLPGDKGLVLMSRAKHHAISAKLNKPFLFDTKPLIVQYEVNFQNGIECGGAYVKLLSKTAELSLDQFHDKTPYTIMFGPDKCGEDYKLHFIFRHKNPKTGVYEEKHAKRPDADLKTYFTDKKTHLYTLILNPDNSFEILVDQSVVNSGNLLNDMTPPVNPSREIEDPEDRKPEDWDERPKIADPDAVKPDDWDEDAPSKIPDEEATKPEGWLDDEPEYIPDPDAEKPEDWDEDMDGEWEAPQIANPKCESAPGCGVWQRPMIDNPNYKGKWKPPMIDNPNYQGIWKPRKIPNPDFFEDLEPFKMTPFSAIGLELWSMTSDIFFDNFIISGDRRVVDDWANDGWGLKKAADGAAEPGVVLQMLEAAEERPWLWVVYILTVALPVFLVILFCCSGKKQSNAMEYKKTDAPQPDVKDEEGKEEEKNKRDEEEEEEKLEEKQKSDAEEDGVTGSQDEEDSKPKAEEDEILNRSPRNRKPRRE
The settings on record: co-IP.

Turning to “H-2Db class I heavy chain (endogenous in EL4)”, the “percent of heterodimers associated with calnexin” value is on record as 85% ofD b heterodimers.

Take H-2Kb class I heavy chain: the “percent of heterodimers associated with calnexin” value is given as ~45% ofK b heterodimers.
